# Reference: patent US20200247886A1 (ZLIP, published 2020)
# T1: CHO/mCD47-GFP (mouse, UniProt Q61735)
# T1 construct: on the cell surface; also called mouse CD47 expressed on CHO cells; CHO cell expressing mouse CD47
# T1 sequence (receptor, looked up): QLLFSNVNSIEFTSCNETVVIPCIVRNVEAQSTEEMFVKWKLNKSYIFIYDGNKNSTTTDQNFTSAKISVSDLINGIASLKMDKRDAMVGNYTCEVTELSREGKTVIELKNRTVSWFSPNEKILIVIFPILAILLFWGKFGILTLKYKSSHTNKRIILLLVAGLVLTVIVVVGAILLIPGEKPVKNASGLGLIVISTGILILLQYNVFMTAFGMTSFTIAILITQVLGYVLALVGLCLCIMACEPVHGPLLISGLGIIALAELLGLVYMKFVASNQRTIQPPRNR
# B1: ABU14 (IgG, chimeric version of the Fab) (antibody, V domains shown)
# VH: EVQLQQSGPELVKPGASVKISCKASGYSFTNYHIHWVKQRPGQGLEWIGWIYPGSGNTKYNEKFKGMAILTADTSSSTAYMQLSSLTSEDSAVYYCARYDYDLYLHSWGQGTTVTVSS
# VL: DIQINQSPSSLSASLGDTITITCHASQNINVWLSWYQQKPGNIPKLLIYKASNLHTGVPSRFSGSGSGTGFTLTISSLQPEDIATYYCQQGQSYPLTFGAGTKLEIK
# B2: ABU9 (IgG, chimeric version of the Fab) (antibody, V domains shown)
# VH: EVQLQQSGPELVKPGASVKLSCKASGFTFTNYYIHWVKQRPGQGPEWIGWIYLGSGNTKYNEKFKGKATLTADTSSSTAYLQLSTLISEDSAVYYCARYDYDLYLDSWGQGTTVTVSS
# VL: DIKMNQSPSSLSASLGDTITITCHASQNINVWLSWYQQKPGNIPKLLIYKASNLHTGVPSRFSGSGSGTGFTLTISSLQPEDIATYYCQQGQSYPLTFGAGTKLELK
# B3: H-ABU 11 (antibody, V domains shown)
# VH: QVQLVQSGAEVKKPGASVKVSCKASGYTFTDFYINWVRQAPGQRLEWMGWIYLGSGNTKYNEKFKGRVTITRDTSASTAYMELSSLRSEDTAVYYCARREERGFAYWGQGTLVTVSS
# VL: DIVMTQSPDSLAVSLGERATINCKSSQSLLSSSQKNYLAWYQQKPGQPPKLLIYWASTRDSGVPDRFSGSGSGTDFTLTISSLQAEDVAVYYCQQFYSYPLTFGQGTKVEIK
# B4: H-ABU 8 (antibody, V domains shown)
# VH: QVQLVQSGAEVKKPGASVKVSCKASGYTFTDNYINWVRQAPGQRLEWMGWVYLGSGNTKYNEKFKGRVTITRDTSASTAYMELSSLRSEDTAVYYCARREERGFAYWGQGTLVTVSS
# VL: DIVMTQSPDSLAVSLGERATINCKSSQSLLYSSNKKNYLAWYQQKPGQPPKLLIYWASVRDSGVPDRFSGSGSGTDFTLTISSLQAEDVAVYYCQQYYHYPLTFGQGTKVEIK
# B5: ABU2 (antibody, V domains shown)
# VH: QVQLQQPGAELVRPGASVKLSCKASGYTFTNYWMNWFKQRPEQGLEWIGRIDPYDSETLYNQKFKDKAILTVDKSSSTAYMQLSSLTSEDSAVYYCAGGGKGGFGYWGQGTLVTVSA
# VL: DVLMTQTPLSLPVSLGDQASISCRSSQSIVYSNGNTYLEWYLQKPGQSPKLLIYKVSNRFSGVPDRFSGSGSGTDFTLKISRVEAEDLGVYYCFQGSHVPYTFGGGTKLEIK
# notes: Murine hybridoma monoclonal antibody
# B6: C-ABU2 (antibody, V domains shown)
# VH: QVQLQQPGAELVRPGASVKLSCKASGYTFTNYWMNWFKQRPEQGLEWIGRIDPYDSETLYNQKFKDKAILTVDKSSSTAYMQLSSLTSEDSAVYYCAGGGKGGFGYWGQGTLVTVSA
# VL: DVLMTQTPLSLPVSLGDQASISCRSSQSIVYSNGNTYLEWYLQKPGQSPKLLIYKVSNRFSGVPDRFSGSGSGTDFTLKISRVEAEDLGVYYCFQGSHVPYTFGGGTKLEIK
# B7: ABU5 (antibody, V domains shown)
# VH: QVQLQQPGAELVKPGASVKMSCKASGYTFTNYWIAWVKRRPGQGLEWIGDFYPGNTSTNYNEKFKTKATLTIDTSSSTAYMQLSSLTSEDSAVYYCARRGRGGSSYWGQGTTLTVSS
# VL: DVLMTQTPLSLPVSLGEQASISCRSSQSIVHSNGNTYLEWYLQKPGQSPKLLIYRVANRFSGVPDRFSGSGSGTDFTLKISRVEAEDLGVYYCFQGSHVPWTFGGGTKLEIK
# notes: Murine hybridoma monoclonal antibody; also called ABUS [sic]
# B8: Positive 1 (commercial anti-CD47 blocking antibody, eBioscience Cat#14-0479) (antibody, V domains shown)
# VH: EVQLVESGGDLVKPGGSLKLSCAASGFTFSGYGMSWVRQTPDKRLEWVATITSGGTYTYYPDSVKGRFTISRDNAKNTLYLQIDSLKSEDTAIYFCARSLAGNAMDYWGQGTSVTVSS
# VL: DIVMTQSPATLSVTPGDRVSLSCRASQTISDYLHWYQQKSHESPRLLIKFASQSISGIPSRFSGSGSGSDFTLSINSVEPEDVGVYYCQNGHGFPRTFGGGTKLEIK
# notes: also called Pos; B6H12
# Assays:
# [1] = target: T2, human CD47 expressed on cells (CD47 expressing CHO cells, Jurkat, HL60, DLD1, Raji) (human, UniProt Q08722 19-292); assay: flow cytometry on DLD1 cells, IgG, MFI
# T2 construct: also called CHO-CD47; IAP
# [2] = target: T2, human CD47 expressed on cells (CD47 …); assay: flow cytometry on DLD1 cells, IgG, frequency
# [3] = target: T2, human CD47 expressed on cells (CD47 …); assay: IC50 (nM) MFI as grade, blocking biotinylated SIRPa-Fc binding to DLD1 cells; legend +++: <1 nM
# [4] = target: T2, human CD47 expressed on cells (CD47 …); assay: IC50 (nM) Frequency as grade, blocking biotinylated SIRPa-Fc binding to DLD1 cells; legend +++: <1 nM
# [5] = target: T2, human CD47 expressed on cells (CD47 …); assay: flow cytometry blocking assay: 100 nM biotinylated SIRPa-Fc (blocked ligand) on DLD1 cells expressing CD47, MFI
# [6] = target: T2, human CD47 expressed on cells (CD47 …); assay: flow cytometry blocking assay: 100 nM biotinylated SIRPa-Fc (blocked ligand) on DLD1 cells expressing CD47, frequency
# [7] = target: T2, human CD47 expressed on cells (CD47 …); assay: flow cytometry on human platelets, donor 1, MFI
# [8] = target: T2, human CD47 expressed on cells (CD47 …); assay: flow cytometry on human platelets, donor 2, MFI
# [9] = target: T2, human CD47 expressed on cells (CD47 …); assay: flow cytometry on human red blood cells, donor 1, MFI
# [10] = target: T2, human CD47 expressed on cells (CD47 …); assay: flow cytometry on human red blood cells, donor 2, MFI
# [11] = target: T2, human CD47 expressed on cells (CD47 …); assay: flow cytometry blocking assay on Raji cells, SIRPα is the blocked ligand, MFI
# [12] = target: T2, human CD47 expressed on cells (CD47 …); assay: IC50 as grade, SIRPα blocking on Raji cells (second part of the table); legend +++: <1 nM
# [13] = target: T3, CD47 protein (construct not stated; SPR antigen, CD47 coated ELISA plates) (Homo sapiens (Human), UniProt Q08722 19-139, limits assumed); assay: SPR (Biacore T100), affinity (nM) as grade; legend +: >10 nM and <40 nM
# T3 construct: also called the antigen
# [14] = target: T2, human CD47 expressed on cells (CD47 …); assay: EC50 (nM) as grade, binding on Jurkat cells; legend +++: >0.05 nM and <1 nM
# [15] = target: T2, human CD47 expressed on cells (CD47 …); assay: EC50 (nM) as grade, binding on CHO-CD47 cells; legend +++: >0.05 nM and <1 nM
# CHO/mCD47-GFP = target: T1, CHO/mCD47-GFP; assay: flow cytometry on CHO cells expressing mouse CD47-GFP, binding percentage
# [16] = target: T4, human CD47-Fc protein (Novoprotein, Cat#CG18) (human, UniProt Q08722 19-139); assay: IC50 (nM) as grade, neutralizing ELISA, CD47-hFc on SIRPα coated plate; legend ++++: <8 nM
# T4 construct: Bought protein; also called CD47-hFc; hCD47-hFc fusion protein; not shown: human IgG Fc of the bought fusion protein
# [17] = target: T2, human CD47 expressed on cells (CD47 …); assay: flow cytometry on human red blood cells, donor 2, MFI; EC50 (nM) table beside the legend
# [18] = target: T4, human CD47-Fc protein (Novoprotein, …); assay: IC50 (nM) as grade, blocking of soluble CD47 binding to SIRPα-expressing CHO cells; legend ++: >1 nM and <10 nM
# [19] = target: T2, human CD47 expressed on cells (CD47 …); assay: flow cytometry on CD47 expressing CHO cells, MFI (FL-4)
# [20] = target: T5, biotin labelled polyhistidine tagged CD47 protein (Novoprotein, Cat#321) (human, UniProt Q08722 19-139, biotin labelled (site not stated)); assay: flow cytometry blocking assay: antibody mixed with biotinylated human CD47 protein; blocked ligand SIRPα on cells; binding percentage
# T5 construct: Bought protein; also called biotinylated CD47; biotinylated human CD47 protein; not shown: polyhistidine tag
binder,measurement,setting,value
B1,EC50 (read off the curve),[1],~400 pM
same,EC50 (read off the curve),[2],~50 pM
same,IC50,[3],< 1000 pM
same,IC50,[4],< 1000 pM
same,IC50 (read off the curve),[5],~300 pM
same,IC50 (read off the curve),[6],~800 pM
B2,EC50 (read off the curve),[1],~400 pM
same,EC50 (read off the curve),[2],~50 pM
same,IC50,[3],< 1000 pM
same,IC50,[4],< 1000 pM
same,IC50 (read off the curve),[5],~300 pM
same,IC50 (read off the curve),[6],~800 pM
B3,EC50 (read off the curve),[7],~1000 pM
same,EC50 (read off the curve),[8],~900 pM
same,EC50 (read off the curve),[9],~1000 pM
same,EC50 (read off the curve),[10],~1000 pM
same,IC50 (read off the curve),[11],~800 pM
same,IC50,[12],< 1000 pM
B4,IC50 (read off the curve),[11],~200 pM
same,IC50,[12],< 1000 pM
B5,Affinity by SPR,[13],10 to 40 nM
same,EC50,[14],50 to 1000 pM
same,EC50,[15],50 to 1000 pM
same,binding result,CHO/mCD47-GFP,no binding (tested: about 0.4 ug/ml)
same,IC50,[16],< 8000 pM
same,EC50,[17],250 pM
same,IC50,[18],1000 to 10000 pM
B6,EC50 (read off the curve),[19],~1000 pM
same,IC50 (read off the curve),[20],~3000 pM
B7,Affinity by SPR,[13],10 to 40 nM
same,EC50,[14],50 to 1000 pM
same,EC50,[15],50 to 1000 pM
same,binding result,CHO/mCD47-GFP,no binding (tested: about 0.4 ug/ml)
same,IC50,[16],< 8000 pM
same,EC50,[17],860 pM
same,IC50,[18],1000 to 10000 pM
B8,Affinity by SPR,[13],10 to 40 nM
same,EC50,[14],50 to 1000 pM
same,EC50,[15],50 to 1000 pM
same,binding result,CHO/mCD47-GFP,no binding (tested: about 0.4 ug/ml)
same,IC50,[16],< 8000 pM
same,IC50,[18],1000 to 10000 pM
